The target of this assay is AMdnB (Anabaena sp. PCC 7120). As to the kind of experiment: ITC. For orientation: Isothermal titration calorimetry measures the heat released or taken up as one component is titrated into another.

By Kd is commonly meant the equilibrium constant for the complex coming apart.

MPENRQEDLNAQAVPFFARFLEGQ [AMdnA_(1–24) peptide (truncated AMdnA LP)] showed a Kd of 12.3 µM.

The values above are taken from PMC8816810.
